Results reported in the RNAGym collection of RNA variant scans (doi:10.7554/elife.80360).

B1: Twister Ribozyme (parent)
chain: AACACUGCCAAUGCCGGUCCCAAGCCCGGAUAAAAGUGGAGGGGGCGG

Variants of: B1
Assay: self-cleavage, relative activity (ratio to wild type); higher = more cleavage; co-transcriptional

Variant	self-cleavage
AACUCUGCCAAUGCCGGUCCCAAGACCGGAUAAAAGUGGAGGGGGCGG [A4U C25A]	0.029
AACUCUGCCAAUGCCGGUCCCAAGCCCGGAUAAAAGUGGAGGCGGCGG [A4U G43C]	0.0736
AACAAUGCCAAUGCCGGUGCCAAGCCCGGAUAAAAGUGGAGGGGGCGG [C5A C19G]	0.0385
AACAAUGCCAAUGCCGGUCCCAAGCCCGGAUAAAAGUGGAGGGGGUGG [C5A C46U]	0.681
AACAAUGCCAAUGCCGGUCCCAAGCCCGGAUAAAAGUGGAGGGGGAGG [C5A C46A]	0.652
AACAAUGCCCAUGCCGGUCCCAAGCCCGGAUAAAAGUGGAGGGGGCGG [C5A A10C]	0.722
AACUCUGCCAAUGCCGGUCCCAAGCCCGGAUAAAAGUGAAGGGGGCGG [A4U G39A]	0.0691
AACAAUGCAAAUGCCGGUCCCAAGCCCGGAUAAAAGUGGAGGGGGCGG [C5A C9A]	0.123
AACAAUGCUAAUGCCGGUCCCAAGCCCGGAUAAAAGUGGAGGGGGCGG [C5A C9U]	0.0659
AACAAUACCAAUGCCGGUCCCAAGCCCGGAUAAAAGUGGAGGGGGCGG [C5A G7A]	0.0771
AACUCUGCCAAUGCCGGUCCCAAGCCCGGUUAAAAGUGGAGGGGGCGG [A4U A30U]	0.11
AACAAUGCCAAUCCCGGUCCCAAGCCCGGAUAAAAGUGGAGGGGGCGG [C5A G13C]	0.105
AACAAUGCCAAUACCGGUCCCAAGCCCGGAUAAAAGUGGAGGGGGCGG [C5A G13A]	0.132
AACAAUGCCAAUGCCGGUCCCCAGCCCGGAUAAAAGUGGAGGGGGCGG [C5A A22C]	0.601
AACAAUGCCAAUGCCGGUCCCUAGCCCGGAUAAAAGUGGAGGGGGCGG [C5A A22U]	0.249
AACAAUGCCAAUGCCGGUCCCGAGCCCGGAUAAAAGUGGAGGGGGCGG [C5A A22G]	0.0856
AACUCUGCCAAUGCCGGUCCCAAGCCCGGACAAAAGUGGAGGGGGCGG [A4U U31C]	0.0955
AACUCUGCCAAUGCCGGUCCCAAGCCCGGAUAAAAGUGGACGGGGCGG [A4U G41C]	0.0883
AACUCUGCCAAUGCCCGUCCCAAGCCCGGAUAAAAGUGGAGGGGGCGG [A4U G16C]	0.0898
AACUCUGCCAAUGCCUGUCCCAAGCCCGGAUAAAAGUGGAGGGGGCGG [A4U G16U]	0.0436
AACGCUGCCAAUGCCGGACCCAAGCCCGGAUAAAAGUGGAGGGGGCGG [A4G U18A]	0.364
AACUCUGCCAAUGCCGGUGCCAAGCCCGGAUAAAAGUGGAGGGGGCGG [A4U C19G]	0.092

Variant	self-cleavage
AACUCUGCCAAUGCCGGUUCCAAGCCCGGAUAAAAGUGGAGGGGGCGG [A4U C19U]	0.0724
AACUCUGCCAAUGACGGUCCCAAGCCCGGAUAAAAGUGGAGGGGGCGG [A4U C14A]	0.225
AACUCUGCCAAUGGCGGUCCCAAGCCCGGAUAAAAGUGGAGGGGGCGG [A4U C14G]	0.0594
AACUCUGCCAAUGUCGGUCCCAAGCCCGGAUAAAAGUGGAGGGGGCGG [A4U C14U]	0.13
AACAAUGCCACUGCCGGUCCCAAGCCCGGAUAAAAGUGGAGGGGGCGG [C5A A11C]	0.169
AACAAUGCCAUUGCCGGUCCCAAGCCCGGAUAAAAGUGGAGGGGGCGG [C5A A11U]	0.351
AACUCUGCCAAUGCCGGUCCCAAGCCCGAAUAAAAGUGGAGGGGGCGG [A4U G29A]	0.173
AACUCUGCCAAUCCCGGUCCCAAGCCCGGAUAAAAGUGGAGGGGGCGG [A4U G13C]	0.0685
AACUCUGCCAAUUCCGGUCCCAAGCCCGGAUAAAAGUGGAGGGGGCGG [A4U G13U]	0.0584
AACGCUGCCAAGGCCGGUCCCAAGCCCGGAUAAAAGUGGAGGGGGCGG [A4G U12G]	0.673
AACUCUGCCAAUGCCGGUCCCAAGCCAGGAUAAAAGUGGAGGGGGCGG [A4U C27A]	0.0441
AACUCUGCCUAUGCCGGUCCCAAGCCCGGAUAAAAGUGGAGGGGGCGG [A4U A10U]	0.0773
AACUCUGCCCAUGCCGGUCCCAAGCCCGGAUAAAAGUGGAGGGGGCGG [A4U A10C]	0.156
AACUCUGCCAAUGCCGGUCCCAAGCCCGGAUAAAAGUGGAGGGGGCGC [A4U G48C]	0.193
AACUCUGCCAAUGCCGGUCCCAAGCCCGGAUAAAAGUGGAGGGGGCGA [A4U G48A]	0.191
AACUCUGCCAAUGCCGCUCCCAAGCCCGGAUAAAAGUGGAGGGGGCGG [A4U G17C]	0.0361
AACAAUGCCAAUGCCGGUCCCAAGCCCGGAUAAACGUGGAGGGGGCGG [C5A A35C]	0.655
AACUCUGCCAAUGCCGGUCCAAAGCCCGGAUAAAAGUGGAGGGGGCGG [A4U C21A]	0.0381
AACUCUGCCAAUGCCGGUCCUAAGCCCGGAUAAAAGUGGAGGGGGCGG [A4U C21U]	0.0656
AACUCUGCCAAUGCCGGUCCGAAGCCCGGAUAAAAGUGGAGGGGGCGG [A4U C21G]	0.0541
AACUCUGCCAAUGCCGGUCCCAAGCCCGGAUAAAAGUAGAGGGGGCGG [A4U G38A]	0.0789
AACUCUUCCAAUGCCGGUCCCAAGCCCGGAUAAAAGUGGAGGGGGCGG [A4U G7U]	0.0685

Variant	self-cleavage
AACUCUGCCAAGGCCGGUCCCAAGCCCGGAUAAAAGUGGAGGGGGCGG [A4U U12G]	0.168
AACUCUGCCAACGCCGGUCCCAAGCCCGGAUAAAAGUGGAGGGGGCGG [A4U U12C]	0.0758
AACUCUGCCAAAGCCGGUCCCAAGCCCGGAUAAAAGUGGAGGGGGCGG [A4U U12A]	0.0897
AACUCUGCCAAUGCCGGUCCCAAACCCGGAUAAAAGUGGAGGGGGCGG [A4U G24A]	0.0658
AACUCUGCCAAUGCCGGUCCCAACCCCGGAUAAAAGUGGAGGGGGCGG [A4U G24C]	0.0697
AACUCUGCCAAUGCCGGUCCCAAGCCCGGAUAGAAGUGGAGGGGGCGG [A4U A33G]	0.0639
AACUCUGCCAAUGCCGGUCCCACGCCCGGAUAAAAGUGGAGGGGGCGG [A4U A23C]	0.0467
AACUCUGCCAAUGCCGGUCCCAGGCCCGGAUAAAAGUGGAGGGGGCGG [A4U A23G]	0.0721
AACGCUGCCAAUGCCGGUCCCAAGCCCGGAAAAAAGUGGAGGGGGCGG [A4G U31A]	0.604
AACGCUGCCAAUGCCGGUCCCAAGCCCGGACAAAAGUGGAGGGGGCGG [A4G U31C]	0.886
AACGCUGCCAAUGCCGGUCCCAAGCCCGGAGAAAAGUGGAGGGGGCGG [A4G U31G]	0.759
AACUCUGCCAAUGCUGGUCCCAAGCCCGGAUAAAAGUGGAGGGGGCGG [A4U C15U]	0.124
AACUCUGCCAAUGCGGGUCCCAAGCCCGGAUAAAAGUGGAGGGGGCGG [A4U C15G]	0.0221
AACUCUGCCAAUGCCGGUCACAAGCCCGGAUAAAAGUGGAGGGGGCGG [A4U C20A]	0.0537
AACAAUGCCAAUGCCGGUCCCAUGCCCGGAUAAAAGUGGAGGGGGCGG [C5A A23U]	0.074
AACAAUGCCAAUGCUGGUCCCAAGCCCGGAUAAAAGUGGAGGGGGCGG [C5A C15U]	0.398
AACUCUGCCAAUGCCGGUCCCCAGCCCGGAUAAAAGUGGAGGGGGCGG [A4U A22C]	0.0902
AACUCUGCCAAUGCCGGUCCCGAGCCCGGAUAAAAGUGGAGGGGGCGG [A4U A22G]	0.0233
AACUCUGCCAAUGCCGGUCCCAAGCCCGGAUAAAUGUGGAGGGGGCGG [A4U A35U]	0.196
AACUCUGCCAAUGCCGGUCCCAAGCCCGGAUAAACGUGGAGGGGGCGG [A4U A35C]	0.129
AACUCUGCGAAUGCCGGUCCCAAGCCCGGAUAAAAGUGGAGGGGGCGG [A4U C9G]	0.0806
AACAAUGCCAAUGCCGGUCCCAAGCCGGGAUAAAAGUGGAGGGGGCGG [C5A C27G]	0.0807

Variant	self-cleavage
AACAAUGCCAAUGCCGGUCCCAAGCCAGGAUAAAAGUGGAGGGGGCGG [C5A C27A]	0.0839
AACAAUGCCAAUGCCGGUCCCAAGCCCGGAUAUAAGUGGAGGGGGCGG [C5A A33U]	0.492
AACUCUGCCAAUGCCGGUCCCAAGCCCGGAUAAAAGUGGCGGGGGCGG [A4U A40C]	0.0425
AACUCUGCCAAUGCCGGUCCCAAGCCCGGAUAAAAGUGGUGGGGGCGG [A4U A40U]	0.0743
AACUCUGCCAAUGCCGGUCCCAAGCCCGGAUAAAAGUGGAGGGGGAGG [A4U C46A]	0.115
AACUCUGCCAAUGCCGGUCCCAAGCCCGGAUAAAAGUGGAGGGGGUGG [A4U C46U]	0.125
AACUCUGCCAAUGCCGGUCCCAAGCCCGGAUAAAAGUGGAGGGGGGGG [A4U C46G]	0.105
AACAAUGUCAAUGCCGGUCCCAAGCCCGGAUAAAAGUGGAGGGGGCGG [C5A C8U]	0.335
AACAAUGACAAUGCCGGUCCCAAGCCCGGAUAAAAGUGGAGGGGGCGG [C5A C8A]	0.133
AACAAUGCCAAUGACGGUCCCAAGCCCGGAUAAAAGUGGAGGGGGCGG [C5A C14A]	0.593
AACAAUGCCAAUGUCGGUCCCAAGCCCGGAUAAAAGUGGAGGGGGCGG [C5A C14U]	0.668
AACAAUGCCAAUGCCGGUCCCAAGCCCGGAUCAAAGUGGAGGGGGCGG [C5A A32C]	0.413
AACAAUGCCAAUGCCGGUCCCAAGCCCGGAUUAAAGUGGAGGGGGCGG [C5A A32U]	0.454
AACAAUGCCAAUGCCGGUCCCAAGCCCGGAUAAAAGUGGCGGGGGCGG [C5A A40C]	0.129
AACAAUGCCAAUGCCGGUCCCAAGCCCGGAUAAAAGUGGUGGGGGCGG [C5A A40U]	0.107
AACAAUGCCAAUGCCGGUCCCAAGCCCGGAUAACAGUGGAGGGGGCGG [C5A A34C]	0.119
AACAAUGCCAAUGCCGGUCCCAAGCCCGGAUAAUAGUGGAGGGGGCGG [C5A A34U]	0.182
AACUCUGCCAAUGCCGGUCCCAAGCACGGAUAAAAGUGGAGGGGGCGG [A4U C26A]	0.0524
AACUCUGCCAAUGCCGGUCCCAAGCCCGGAUAAAACUGGAGGGGGCGG [A4U G36C]	0.0838
AACUCUGCCAAUGCCGGUCCCAAGCCCGGAUAAAAGUGGAGGGGGCGG [A4U]	0.136
AACUCUGCCAAUGCCGGUCCCAAGCCCGGAUCAAAGUGGAGGGGGCGG [A4U A32C]	0.1
AACUCUGCCAAUGCCGGUCCCAAGCCCGGAUGAAAGUGGAGGGGGCGG [A4U A32G]	0.0833

Variant	self-cleavage
AACUCUGCCAAUGCCGGUCCCAAGCCCGGAUUAAAGUGGAGGGGGCGG [A4U A32U]	0.0867
AACUCUGCCAAUGCCGGUCCCAAGCCCGGAUAACAGUGGAGGGGGCGG [A4U A34C]	0.057
AACUCUGCCAAUGCCGGUCCCAAGCCCGGAUAAUAGUGGAGGGGGCGG [A4U A34U]	0.068
AACUCUGCCAAUGCCGGUCCCAAGCCCUGAUAAAAGUGGAGGGGGCGG [A4U G28U]	0.116
AACUCUGCCAAUGCCGGUCCCAAGCCCCGAUAAAAGUGGAGGGGGCGG [A4U G28C]	0.0611
AACUAUGCCAAUGCCGGUCCCAAGCCCGGAUAAAAGUGGAGGGGGCGG [A4U C5A]	0.0794
AACUCUGCCAAUGCCGGUCCCAAGCCCGGAUAAAAGUGGAGAGGGCGG [A4U G42A]	0.0876
AACUCUGCCAAUGCCGGUCCCAAGCCCGGAUAAAAGUGGAGCGGGCGG [A4U G42C]	0.103
AACAAUGCCAAUGCCGGUCGCAAGCCCGGAUAAAAGUGGAGGGGGCGG [C5A C20G]	0.0697
AACAAUGCCAAUGCCGGUCACAAGCCCGGAUAAAAGUGGAGGGGGCGG [C5A C20A]	0.0707
AACAAUGCCAAUGCCGGUCCCAAGACCGGAUAAAAGUGGAGGGGGCGG [C5A C25A]	0.068
AACAAUGCCAAUGCCGGUCCCAAGUCCGGAUAAAAGUGGAGGGGGCGG [C5A C25U]	0.236
AACAAUGCCAAUGCCGGUCCCAAGCCCGGGUAAAAGUGGAGGGGGCGG [C5A A30G]	0.491
AACAAUGCCAAUGCCGGUCCCAAGCCCGGCUAAAAGUGGAGGGGGCGG [C5A A30C]	0.348
AACUCUGGCAAUGCCGGUCCCAAGCCCGGAUAAAAGUGGAGGGGGCGG [A4U C8G]	0.13
AACUCUGUCAAUGCCGGUCCCAAGCCCGGAUAAAAGUGGAGGGGGCGG [A4U C8U]	0.0539
AACUCAGCCAAUGCCGGUCCCAAGCCCGGAUAAAAGUGGAGGGGGCGG [A4U U6A]	0.0622
AACUCUGCCAAUGCCGGUCCCAAGCCCGGAUAAAAGCGGAGGGGGCGG [A4U U37C]	0.022
AACGCUGCCAAUGCCGGUCCCAAGCCCGGAUAAAAGCGGAGGGGGCGG [A4G U37C]	0.99
AACUCUGCCAAUGCCGGUCCCAAGCCCGGAUAAAAGUGGAGGGGGCCG [A4U G47C]	0.111
